# Source: patent publication US20260125454A1 (SHANGHAI JUNSHI BIOSCIENCES, published 2026)
# T1: Biotin-huCGRPaSA (human, not fully specified; biotin (position not given))
# T1 construct: exact construct ('aSA') not explained; also called Biotin CGRPaSA; full-length (1-37) CGRP
# T1 peptide: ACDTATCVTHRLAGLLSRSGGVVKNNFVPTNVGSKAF
# Molecular target: T1, Biotin-huCGRPaSA
# Test: ELISA, supernatant; relative to chimeric C245
# Procedure: Biotin CGRPaSA was diluted with PBS (Hyclone) to 1.0 μg/mL, and the dilution was added to a microplate at 100 μL/well. The plate was let stand in an incubator at 37° C. and coated for 90 min and then washed, and 2% BSA was added to the plate at 200 μL/well. The plate was incubated in an incubator at 37° C. for 90 min and then washed. The humanized antibodies in Table 8 and the reference antibody (chimeric antibody C245) were diluted to 1000 ng/mL with a diluent (2% BSA) with a dilution factor of not more than 10. Then, the chimeric antibodies and the reference antibody were serially 2.5-fold diluted on a sample dilution plate. All the chimeric antibody solutions and the reference antibody solution were added into plates at 100 μL/well, and the plates were incubated in a thermostat incubator at 37° C. for 60 min and washed. An HRP-conjugated goat anti-human antibody IgG (manufacturer: Sigma, Cat. No. A0170; Fc specificity) was diluted 5000-fold with 2% BSA and added into the plates at 100 μL/well, and the plates were incubated in the thermostat incubator at 37° C. for 60 min and washed. Chromogenic reagent TMB was carefully added at 100 μL/well to avoid bubbles, and the system was incubated at 37° C. for 15 min away from light for chromogenic reaction. Finally, a 2 M hydrochloric acid solution was added at 100 μL/well to stop the reaction while avoiding bubbles, and the plates were read on a microplate reader within 10 min (wavelength: 450/620 nm).
row,Binder,"Relative binding activity, % [%]"
1,"hu14 (antibody, V domains shown, 1B2 HC-2/1A2 LC2-1) VH: QVQLVQSGAEVKKPGASVKVSCKASGYTFTDYNMHWVRQAPGQRLEWMGYIFPYNGVAVYNRKFRSRVTLTVDTSSSTAYMELSSLRSEDTAVYYCAREGLGGYWGQGTLVTVSS VL: DIVLTQSPASLAVSPGQRATITCKASQNIDYDGYAYLNWYQQKPGQPPKVLIYSVFNLESGVPARFSGSGSGTDFTLTINPVEANDTANYYCQQSNEFPYTFGQGTKLEIK",32
2,"hu92 (antibody, V domains shown, 2A2 HC-1/1A2 LC2-1) VH: QVQLVQSGAEVKKPGASVKVSCKASGYTFTDYNMHWVRQAPGQRLEWMGYVYPYNGGSAYNQKFKSRVTLTVDTSSSTAYMELSSLRSEDTAVYYCAREGLGGYWGQGTLVTVSS VL: DIVLTQSPASLAVSPGQRATITCKASQNIDYDGYAYLNWYQQKPGQPPKVLIYSVFNLESGVPARFSGSGSGTDFTLTINPVEANDTANYYCQQSNEFPYTFGQGTKLEIK",32
3,"hu53 (antibody, V domains shown, 1F5 HC-3/1A2 LC2-1) VH: QVQLVQSGAEVKKPGASVKVSCKASGYTFTDFNMHWVRQAPGQGLEWMGYIYPYNGDVVYNQNFTNRVTLTVDTSSSTAYMELRSLRSDDTAVYYCAREGLGGYWGQGTLVTVSS VL: DIVLTQSPASLAVSPGQRATITCKASQNIDYDGYAYLNWYQQKPGQPPKVLIYSVFNLESGVPARFSGSGSGTDFTLTINPVEANDTANYYCQQSNEFPYTFGQGTKLEIK",13
4,"hu79 (antibody, V domains shown, 1F5 HC-5/1A2 LC2-1) VH: QVQLVQSGAEVKKPGASVKVSCKASGYTFIDFNMHWVRQAPGQRLEWMGYIYPYNADVVYNQDFTNRVTLTVDTSSSTAYMELSSLRSEDTAVYYCAREGLGGYWGQGTLVTVSS VL: DIVLTQSPASLAVSPGQRATITCKASQNIDYDGYAYLNWYQQKPGQPPKVLIYSVFNLESGVPARFSGSGSGTDFTLTINPVEANDTANYYCQQSNEFPYTFGQGTKLEIK",80
5,"hu105 (antibody, V domains shown, 2B8 HC1-1/1A2 LC2-1) VH: QVQLVQSGAEVKKPGASVKVSCKASGYTFTDYNMHWVRQAPGQGLEWMGNIYPYNGGTVYNQKFNNRVTLTVDTSSSTAYMELSRLRSDDTAVYYCAREGLGGYWGQGTLVTVSS VL: DIVLTQSPASLAVSPGQRATITCKASQNIDYDGYAYLNWYQQKPGQPPKVLIYSVFNLESGVPARFSGSGSGTDFTLTINPVEANDTANYYCQQSNEFPYTFGQGTKLEIK",31
6,"hu20 (antibody, V domains shown, 1B2 HC-2/1F5 LC1-3) VH: QVQLVQSGAEVKKPGASVKVSCKASGYTFTDYNMHWVRQAPGQRLEWMGYIFPYNGVAVYNRKFRSRVTLTVDTSSSTAYMELSSLRSEDTAVYYCAREGLGGYWGQGTLVTVSS VL: DIVLTQSPASLAVSPGQRATITCKASQNIDFDGYAYMNWYQQKPGQPPKVLIYSVFNLESGVPARFSGSGSGTDFTLTINPVEADDTANYYCQQSHEVPYTFGQGTKLEIK",40
7,"hu59 (antibody, V domains shown, 1F5 HC-3/1F5 LC1-3) VH: QVQLVQSGAEVKKPGASVKVSCKASGYTFTDFNMHWVRQAPGQGLEWMGYIYPYNGDVVYNQNFTNRVTLTVDTSSSTAYMELRSLRSDDTAVYYCAREGLGGYWGQGTLVTVSS VL: DIVLTQSPASLAVSPGQRATITCKASQNIDFDGYAYMNWYQQKPGQPPKVLIYSVFNLESGVPARFSGSGSGTDFTLTINPVEADDTANYYCQQSHEVPYTFGQGTKLEIK",70
8,"hu40 (antibody, V domains shown, 1F5 HC-2/1A2 LC2-1) VH: QVQLVQSGAEVKKPGASVKVSCKASGYTFTDFNMHWVRQAPGQRLEWMGYIYPYNGDVVYNQNFTNRVTLTVDTSSSTAYMELSSLRSEDTAVYYCAREGLGGYWGQGTLVTVSS VL: DIVLTQSPASLAVSPGQRATITCKASQNIDYDGYAYLNWYQQKPGQPPKVLIYSVFNLESGVPARFSGSGSGTDFTLTINPVEANDTANYYCQQSNEFPYTFGQGTKLEIK",49
9,"hu80 (antibody, V domains shown, 1F5 HC-5/1A2 LC2-2) VH: QVQLVQSGAEVKKPGASVKVSCKASGYTFIDFNMHWVRQAPGQRLEWMGYIYPYNADVVYNQDFTNRVTLTVDTSSSTAYMELSSLRSEDTAVYYCAREGLGGYWGQGTLVTVSS VL: DIVLTQSPASLAVSPGQRATITCKASQNIDYDGYAYLNWYQQKPGQPPKVLIYSVFNLESGVPARFSGSGSGTDFTLTINPVEADDTANYYCQQSNEFPYTFGQGTKLEIK",99
10,"hu46 (antibody, V domains shown, 1F5 HC-2/1F5 LC1-3) VH: QVQLVQSGAEVKKPGASVKVSCKASGYTFTDFNMHWVRQAPGQRLEWMGYIYPYNGDVVYNQNFTNRVTLTVDTSSSTAYMELSSLRSEDTAVYYCAREGLGGYWGQGTLVTVSS VL: DIVLTQSPASLAVSPGQRATITCKASQNIDFDGYAYMNWYQQKPGQPPKVLIYSVFNLESGVPARFSGSGSGTDFTLTINPVEADDTANYYCQQSHEVPYTFGQGTKLEIK",25
11,"hu15 (antibody, V domains shown, 1B2 HC-2/1A2 LC2-2) VH: QVQLVQSGAEVKKPGASVKVSCKASGYTFTDYNMHWVRQAPGQRLEWMGYIFPYNGVAVYNRKFRSRVTLTVDTSSSTAYMELSSLRSEDTAVYYCAREGLGGYWGQGTLVTVSS VL: DIVLTQSPASLAVSPGQRATITCKASQNIDYDGYAYLNWYQQKPGQPPKVLIYSVFNLESGVPARFSGSGSGTDFTLTINPVEADDTANYYCQQSNEFPYTFGQGTKLEIK",44
12,"hu54 (antibody, V domains shown, 1F5 HC-3/1A2 LC2-2) VH: QVQLVQSGAEVKKPGASVKVSCKASGYTFTDFNMHWVRQAPGQGLEWMGYIYPYNGDVVYNQNFTNRVTLTVDTSSSTAYMELRSLRSDDTAVYYCAREGLGGYWGQGTLVTVSS VL: DIVLTQSPASLAVSPGQRATITCKASQNIDYDGYAYLNWYQQKPGQPPKVLIYSVFNLESGVPARFSGSGSGTDFTLTINPVEADDTANYYCQQSNEFPYTFGQGTKLEIK",22
13,"hu28 (antibody, V domains shown, 1F5 HC-1/1A2 LC2-2) VH: QVQLVQSGAEVKKPGASVKVSCKASGYTFIDFNMHWVRQAPGQRLEWMGYIYPYNGDVVYNQNFTNRVTLTVDTSSSTAYMELSSLRSEDTAVYYCAREGLGGYWGQGTLVTVSS VL: DIVLTQSPASLAVSPGQRATITCKASQNIDYDGYAYLNWYQQKPGQPPKVLIYSVFNLESGVPARFSGSGSGTDFTLTINPVEADDTANYYCQQSNEFPYTFGQGTKLEIK",71
14,"hu41 (antibody, V domains shown, 1F5 HC-2/1A2 LC2-2) VH: QVQLVQSGAEVKKPGASVKVSCKASGYTFTDFNMHWVRQAPGQRLEWMGYIYPYNGDVVYNQNFTNRVTLTVDTSSSTAYMELSSLRSEDTAVYYCAREGLGGYWGQGTLVTVSS VL: DIVLTQSPASLAVSPGQRATITCKASQNIDYDGYAYLNWYQQKPGQPPKVLIYSVFNLESGVPARFSGSGSGTDFTLTINPVEADDTANYYCQQSNEFPYTFGQGTKLEIK",61
15,"hu93 (antibody, V domains shown, 2A2 HC-1/1A2 LC2-2) VH: QVQLVQSGAEVKKPGASVKVSCKASGYTFTDYNMHWVRQAPGQRLEWMGYVYPYNGGSAYNQKFKSRVTLTVDTSSSTAYMELSSLRSEDTAVYYCAREGLGGYWGQGTLVTVSS VL: DIVLTQSPASLAVSPGQRATITCKASQNIDYDGYAYLNWYQQKPGQPPKVLIYSVFNLESGVPARFSGSGSGTDFTLTINPVEADDTANYYCQQSNEFPYTFGQGTKLEIK",45
16,"hu27 (antibody, V domains shown, 1F5 HC-1/1A2 LC2-1) VH: QVQLVQSGAEVKKPGASVKVSCKASGYTFIDFNMHWVRQAPGQRLEWMGYIYPYNGDVVYNQNFTNRVTLTVDTSSSTAYMELSSLRSEDTAVYYCAREGLGGYWGQGTLVTVSS VL: DIVLTQSPASLAVSPGQRATITCKASQNIDYDGYAYLNWYQQKPGQPPKVLIYSVFNLESGVPARFSGSGSGTDFTLTINPVEANDTANYYCQQSNEFPYTFGQGTKLEIK",28
